Data as given in patent US20170028021A1, “COMPOSITIONS AND METHODS FOR TREATING NEURODEGENERATIVE DISEASE” (MYELIN THERAPEUTICS, INC., priority 2015, published 2017).

Tested on: primary mouse OPs
Assay: Proliferation of oligodendrocyte precursor (OP) cultures, scoring NG2+ and NG2+/BrdU+ cells
Assay type: cell-based
Conditions: TLQP-21 3 μM, AQEE-30 3 μM, BDNF 50 ng/μl, analyzed 48 hours later, vs DMSO
Method: The growth factor VGF was of particular interest because it is reported to be highly expressed in OPs. Furthermore, its upregulation upon exercise activates the anti-depressant response in mammals, and maintains BDNF expression in a VGF-BDNF positive feedback loop. […] VGF is cleaved to produce numerous C-terminal bioactive peptides including TLQP-62, TLQP-21, and AQEE-30, amongst others. As such, oligodendrocyte precursor (OP) cultures were treated with well-characterized peptides that trigger BDNF production TLQP-21 (3 μM), AQEE-30 (3 μM), BDNF (50 ng/μl), or DMSO along with the proliferation marker BrdU and then analyzed 48 hours later by scoring the number of NG2+/BrdU+ cells. In parallel, the total number of NG2+ cells was counted to assess for endogenous proliferation. […] Indeed, VGF protein levels are robust early in the OP differentiation cascade (FIG. 11).
Mouse OPs were isolated from the cortices of PO WT neonates by expansion within mixed glial culture for 8 days, purified, and subsequently differentiated as an OP-enriched culture. At DIV1 post-purification, cells were treated with DMSO, BDNF, VGF AQEE-30 or VGF TLQP-21 at 3 uM and allowed to grow for an additional 48 hrs. […] DAPI stains all nuclei. […] Scale bar, […]. FIG. 10C depicts quantitation of the average dendritic length 48 hrs post-peptide treatment. **P<0.01, n=4 independent coverslips per condition. […]

B1: BDNF: brain-derived neurotrophic factor, comparison treatment in OP cultures (protein, UniProt P23560 19-247, looked up)
Neurotrophic factor BDNF …: APMKEANIRGQGGLAYPGVRTHGTLESVNGPKAGSRGLTSLADTFEHVIEELLDEDQKVRPNEENNKDADLYTSRVMLSSQVPLEPPLLFLLEEYKNYLDAANMSMRVRRHSDPARRGELSVCDSISEWVTAADKKTAVDMSGGTVTVLEKVPVSKGQLKQYFYETKCNPMGYTKEGCRGIDKRHWNSQCRTTQSYVRALTMDSKKRIGWRFIRIDTSCVCTLTIKRGR
For B1, the “total number of NG2+ cells” value was “no significant differences” and the “total number of proliferating Ng2+/BrdU+ OPs” value (with BrdU) was “no significant differences”.
